From the Human Domainome abundance scans (Beltran et al. 2025)
± gives the uncertainty stated by the source.

B1: Ankyrin-1, residues 1405 to 1484; numbered along this chain, P16157 (parent)
chain: MKMAVISEHLGLSWAELARELQFSVEDINRIRVENPNSLLEQSVALLNLWVIREGQNANMENLYTALQSIDRGEIVNMLE
B2: Cyclin-F, residues 28 to 80; numbered along this chain, P41002 (parent)
chain: RNLTILSLPEDVLFHILKWLSVEDILAVRAVHSQLKDLVDNHASVWACASFQE

Variants of: B1
Test: abundance fitness (aPCA) (normalised: wild type 0, dead -1); higher = more abundant; growth selection in yeast, the domain comes from the species named
Conditions: Homo sapiens

Abundance fitness of substitutions, site by site:
L12: C 0.3 ± 0.5; T 0.063 ± 0.18; V 0.029 ± 0.087
H9: A -0.429 ± 0.14; C 0.011 ± 0.1; D -0.826 ± 0.3
E54: Y -0.357 ± 0.15; F -0.606 ± 0.15; A -0.496 ± 0.077; G -0.115 ± 0.049
Q22: T -0.044 ± 0.072; M -0.008 ± 0.048

Variants of: B2
Test: as above
Conditions: Homo sapiens

Abundance fitness of substitutions, site by site:
L8: M -0.407 ± 0.4; A -0.509 ± 0.31; G -0.939 ± 0.23; Q -0.925 ± 0.39; T -0.651 ± 0.35; R -0.833 ± 0.24; C -0.993 ± 0.38; N -0.755 ± 0.29; S -0.635 ± 0.33; K -0.744 ± 0.44; V -0.915 ± 0.26
S7: M -0.195 ± 0.14; A -0.427 ± 0.1; L -0.647 ± 0.1; Q -0.232 ± 0.13; C -0.316 ± 0.12; V -0.647 ± 0.11; Y -0.869 ± 0.22; F -0.547 ± 0.14; K -0.109 ± 0.13; E -0.27 ± 0.11; D 0.101 ± 0.13; N -0.118 ± 0.13; W -0.693 ± 0.12; T -0.381 ± 0.13; G -0.31 ± 0.076; P -0.767 ± 0.17; I -0.426 ± 0.2; H -0.242 ± 0.15
L6: K -0.806 ± 0.18; R -0.83 ± 0.099; T -0.486 ± 0.12; V -0.665 ± 0.13; M -0.486 ± 0.15; H -0.691 ± 0.24; E -0.889 ± 0.24; P -0.674 ± 0.16; Q -0.427 ± 0.15; F -0.356 ± 0.16; N -0.691 ± 0.17; C -0.695 ± 0.13; W -0.678 ± 0.12; S -0.885 ± 0.13; D -0.593 ± 0.29; Y -0.423 ± 0.15; A -0.898 ± 0.15
L3: D -0.598 ± 0.21; C -0.316 ± 0.094; R -0.134 ± 0.077; A -0.708 ± 0.13; S -0.09 ± 0.098; I -0.112 ± 0.17; N -0.337 ± 0.2; K -0.354 ± 0.16; E -0.727 ± 0.16; Y 0.109 ± 0.18; P -0.322 ± 0.13; H -0.283 ± 0.15; G -0.435 ± 0.079; T -0.437 ± 0.15; W -0.596 ± 0.1; F -0.078 ± 0.17; M -0.276 ± 0.13; Q -0.863 ± 0.31
I5: N -0.907 ± 0.19; K -0.758 ± 0.19; G -0.78 ± 0.097; F -0.254 ± 0.16; D -0.868 ± 0.14; E -0.679 ± 0.21; H -0.771 ± 0.18; L 0.12 ± 0.091; Y -0.544 ± 0.18; C -0.692 ± 0.16; A -0.657 ± 0.11; V -0.243 ± 0.087; M -0.254 ± 0.12; T -0.697 ± 0.17; W -0.615 ± 0.15; P -0.559 ± 0.15; S -1.04 ± 0.15
T4: E -0.605 ± 0.15; I -0.866 ± 0.23; G -0.068 ± 0.082; K -0.611 ± 0.22; C -0.55 ± 0.17; A -0.768 ± 0.13; S 0.087 ± 0.093; L -0.836 ± 0.13; D -0.076 ± 0.11; M -0.695 ± 0.17; N -0.046 ± 0.14; W -0.65 ± 0.14; R -0.735 ± 0.1; Q -0.481 ± 0.15; V -0.997 ± 0.15; Y -0.85 ± 0.29; H -0.059 ± 0.14
P9: I -0.847 ± 0.28; G -0.413 ± 0.081; N -0.882 ± 0.33; E -0.646 ± 0.12; F -0.621 ± 0.15; A -0.778 ± 0.11; M -1.04 ± 0.21; H -0.949 ± 0.19; R -0.692 ± 0.088; C -0.676 ± 0.15; Q -0.735 ± 0.14; T -0.69 ± 0.14; K -0.818 ± 0.15; Y -0.932 ± 0.18; S -0.672 ± 0.11; V -0.59 ± 0.11; D -0.541 ± 0.16
E10: C -0.585 ± 0.15; K 0.24 ± 0.14; H -0.166 ± 0.1; D -0.225 ± 0.12; L -0.646 ± 0.098; F -0.449 ± 0.14; N -0.589 ± 0.19; M -0.558 ± 0.15; I -0.576 ± 0.16; A -0.208 ± 0.12; P -0.357 ± 0.11; G -0.566 ± 0.096
R1: C -0.246 ± 0.16; T -0.058 ± 0.13; S 0.016 ± 0.15; V -0.465 ± 0.2; W -0.914 ± 0.28; N 0.134 ± 0.27; I 0.032 ± 0.34; K 0.091 ± 0.42; L -0.305 ± 0.44; M -0.359 ± 0.31; A -1.04 ± 0.42; G -0.193 ± 0.12
N2: T -0.168 ± 0.11; Y -0.366 ± 0.14; W -0.871 ± 0.13; P -0.185 ± 0.11; D -0.306 ± 0.19; F -0.407 ± 0.19; S -0.129 ± 0.085; A -0.492 ± 0.14; Q -0.331 ± 0.14; R -0.078 ± 0.085; H -0.065 ± 0.14; V -0.089 ± 0.11; I -0.618 ± 0.23; C -0.357 ± 0.12; K -0.182 ± 0.13; E -0.348 ± 0.19
